From the nanobody polyreactivity screen of Harvey et al. (2022) come the findings set out here.

The nature of the data set: yeast display, Sf9 membrane polyspecificity reagent, FACS + sequencing; frameworks hold sequencing errors. The essentials: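 Galactose induction of a Saccharomyces cerevisiae BJ5465 synthetic nanobody display library ran 36–48 hours. The cells were then stained for 1 hour at 4 °C with 10% biotinylated, detergent-solubilized Sf9 membrane reagent, pulled down on streptavidin microbeads and FACS-sorted into low and high (top ~1%) gates on expression and reagent-binding fluorescence. Labels for polyreactivity follow the gate of origin.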
Consider “QVQLVESGGGLVQAGGSLRLSCAASGRTFRRYTMGWYRQAPGKEREFVAGITSSAGNTHYADSVKGRFTISRYNAKNTVYLQMNSLKPEDTAVYYCNAVYYHGSSQYYGGTYGRYYWGQGTQVTVSS”, for which the “polyreactivity (PSR sort gate)” value is given as “high polyreactivity”.
Turning to “QVQLVESGGGLVQAGGSIRLSCAASGITFTLYAMGWYRQAPGKEMELVAAITISAGSTYYADSVKGRFTISRDNAKNTVYLQINSLKPEDTAVYYCAAESYGSWYYYWGQGTQVTVSS”, the “polyreactivity (PSR sort gate)” value is “high polyreactivity”.
Take “QVHLVESAGGLVQAGGSLRLSCAASGITFSDNAMGWYRPAPGKETEVVAAISWGGGSTYYADSVKGRFTISRDNAKNTVYLQMNSLKPEDTAFYYCNAGGYLISDVDRVGYWGQGTQVTVSS”: the “polyreactivity (PSR sort gate)” value is “low polyreactivity”.
With “QVQLVESGGCLVQAGGSLRLSCAASGSIFRYYAKGWYRQAPGKERELVAAIRVSTGSTSYADSVKGRFTISRDTAKNTVYLQMNSLKPEDTAFYYCNARSRQVIAYRQHNYWGQGTQVTVSS”, the “polyreactivity (PSR sort gate)” value is reported as “high polyreactivity”.
Next, “QVQLVESGGGLVQAGGSLRLSCAASGRISYANSMGWYRQAPGKESELVASITYSAGSTYADSVKGRFTISRDNAKNTVYLQMNSLKPEDTAVYYCAKRPSQHYRSYLMDYWGQGTQVTVSS”: “low polyreactivity”; “QVQLVESGGWLVQAGGSLRLSCDASGITFYRNAVGWYRPAPGKERELVADITVSGGSTYYADSVKGRFTISRDNAKNTVYLQMNSLKPEDTAVYYCNAGLYQYDVWAYYIRYDYWGQGTQVTVSS”: “low polyreactivity”; “QVQLVESGGGLVQAGGSLRLSCAASGSIFFYYAMGWYRQAPGKERELVASISTDGSTYADSVKGRFTISRDNAKNTVYLQMNSLKPEDTAVYYCNADTRGEYTYVSWYDYWGQGTQVTVSS”: “low polyreactivity”.
Regarding “QDQLVESGGGLVQAGGSLRLSCAASGLTFDRYTMGWYRQAPGKERELVAAITRGGGNTYYADSVKGRFTISRDNAKNTVYLQMNSLKPEDTAVYYCAANRRDGYDYWGQGTQVTVSS”, the “polyreactivity (PSR sort gate)” value is reported as “low polyreactivity”.
Next, “QVQLVQSGGGLVQAGGSLSLSCAASGSTFSTYAMGWYRQAPGKERELVATISKSGGSTYYSDSVKGRFTISRDNAKNTVYLQMNSLKPEDTAVYYCNARYQSRYFIYDYWGQGTQVTVSS”: “high polyreactivity”.
Turning to “QVQIVESGGGLVQAGGSLRLSCAASGFIFGPYAMGWYRQAPGKERELVAAMSRSGGDTYYADSVKGRFTISRDFEKNTVYLQMNSLKPEDTAVYYCAAVGKYSAYNYWGQGTQVTVSS”, the “polyreactivity (PSR sort gate)” value is listed as “high polyreactivity”.
For the sequence “QVQLVESGGGLVQAGGSHRLSCAASGRILPGYAMGWYRPAPGKERELVAAITTGGSTYYADSVKGRFTISRDNAKNTVYLQMNSLKPEDTAVYYCAKLYSYVGWGGQFDYWGQGTQVTVSS”, the “polyreactivity (PSR sort gate)” value is reported as “low polyreactivity”.
In the case of “QVQLVESGGGLVQEGGSLRISCAASGRTFIGYTIGWYRQAPRKERELFAAITWNGGRTYYADSVKGRFTISRDNAKNTVYLQMNSLKPEVTAVYYCAAPRRVVIGGGDYWGQGTQVTVSS”, the “polyreactivity (PSR sort gate)” value is “high polyreactivity”.
The entry for “QVQLVESGGCLVQAGGSLRLSCAASGRIFGSYTKGWYRQAPGKERELVAAISDSGDSTYADSVKGRFTISRDNAKNTVYLQMNSLKPEDTAVYYCNAKSGSLAGNEYDYWGQGTQVTVSS” is “low polyreactivity”; for “QVQLVDSGGGLLQAGGSLRLSFAASGRTLNHYVMGWYRQAPGKERELVAAISSGGSTYYADSVKGRFTISRDNAKNTVYLQMNSLKPEDTAVYYCNAGVVGDYPYWGLMDYWGQGTKVTVSS” it is “high polyreactivity”; for “QVQLVESGGGLVQAGGSLRLSCAASGSIFGRNAMAWYRQAPGKERELVADIWNGGSTYYADSVNGRFTNSRDNAKNTVYFLMNSLKPEDTAVSYCNADADDDGRFGGYMKYDYWGQGTQVTVSS” it is “low polyreactivity”.
For the sequence “QVQLVESGGGLVQAGGSLRLSCAASGSTFDYNTMGWYRQAPGKERELVAAISWRGVSTYYADSVKGRFTISRDNAKNTVYLQMNSLKTEDTAVYYCNAVHHYPEHIGGGYWGQGTQVTVSS”, the “polyreactivity (PSR sort gate)” value is listed as “low polyreactivity”.
As to “PVQLVESGGGLGQAGGSLRLSCAASGRIFYLYAMGWYRQAPGKERELVATIDSSGDSTFYADSVKGRFTISRDNAKNTVYLQMNSLKPEDTAVYNCAADEVSSYDYGYKGRYDYWGQGTQVTVSS”, the “polyreactivity (PSR sort gate)” value is listed as “low polyreactivity”.
In the case of “QVQLVESGGGLVQAGGSLRLSCAASGRTCGRYAMGWYRQAPGKERELVADISWNGGRTYYADSVKGRFTISRDNAKNTVYLKMNSLKPEDSAVYYCAKRFSPRYYYWGQGTQVTVSS”, the “polyreactivity (PSR sort gate)” value is “high polyreactivity”.
Regarding “QVQLVESGGGLVQAGGSLRLSCAASGFILRGYDMGWYRQATGKERELVATITTGGSTYYADSVKGRFTISRDNAKNTVYLQMNSLKPEDTAVYYCAGRRRGSVGVGYANPYNYWGQGTQVTVSS”, the “polyreactivity (PSR sort gate)” value is reported as “high polyreactivity”.
“QVQLVESGGGLVQAGGSLRLSCAASGFIGWYAMGWYRQAPGNEREFVAAISASGGSTYYADSVKGRFTISRDNAKNTVYLQMNSLKPEETAVYYCAAYYRAYNPRRFYYWGQGTQVTVSS”: the “polyreactivity (PSR sort gate)” value is reported as “high polyreactivity”.
Take “QVQLVESGGGLVQAGGSLRLSCAASGRTFEVYAMGWYRQAPGKERELVAAISGGDDSTYYADSVQGRFTISRDNAKNTVYLQRNSLKPEDTAVYYCNAHYPTSATLPKTVVEYDYWGQGTQVTVSS”: the “polyreactivity (PSR sort gate)” value is “low polyreactivity”.
Take “QVQLVESGGGLVQAGGSLRLSCAASGSTFKYYAMGWYRQAAGKERELVATITRRSGSTYYADSVKGRFTISRDNAKNTVYLQMNSLKPEDTAVYYCNAYGPYKYNYWGQGTQVTVSS”: the “polyreactivity (PSR sort gate)” value was “high polyreactivity”.
Next, “QGQLVQSGVGLVQAGGSLSLSCAASGIIFTWYDMGWYRQAPGKERELVAAISNSGGSTYYADSVKGRFTISRDNAKNTVYLQMNSLKPEDTAVYYCNAGSYVCEEDYWGQGTQVTVSS”: “high polyreactivity”; “QVQLVESGGGLVQAGGSLRLSCAASGRTFETNAMGWYRQAPGKERELVAAISRSGGRTYYADSVKGRFTISRDNAKNTVYLQMNSLKPEDTAVYYCAVRQATVTGGGYWGQGTQVTVSS”: “high polyreactivity”; “QVQLVESGGGLVQAGGSLRLSCAASGRIFGNNAMAWYRQATGKESELVAGISRTGGSTYYADSVKGRFTISRDNAKNTVYLQMNSLKPEDTAVFYCAALVYSGRYASYGYWGQGTQVTVSS”: “low polyreactivity”.
Regarding “QVQIVESVGGLLQAGGSLRLSCAASGRIFQGYAMGWYRQAPGKERELVASISSCGRTYYADSVKGRFTISRDNAKNTVYLQFNSLTPEDTAVYYCAKRPQFFWSNPYDYWGLGTQVTVSS”, the “polyreactivity (PSR sort gate)” value is reported as “high polyreactivity”.
Consider “QVQLGESGGGLVQAGGSLRLSCAASGSTFPVYAMGWSRQAPGKEWELVAAISSGGTTNYADSVKGRFTISRDNAKNTVYLQRNSLKPEDTAVYYCAADDWYYHFLVSSSAFDYWGQGTQVTVSS”, for which the “polyreactivity (PSR sort gate)” value is on record as “high polyreactivity”.
For “QVQLVESGGGLVQARGSLRLSCAASGSIFLYYAMGWYRQAPGKEREFVAAISIIGGSTYYADSVKGRFTISRDNAKNTVYLQMNSLKPEDTAVYYCAADYYYHRWTSVEGGYWGQGTQVTVSS”, the “polyreactivity (PSR sort gate)” value is “low polyreactivity”.
For “QVQLVESIGGLVQAGGSLRLSCAASGSIFQPYAMRWYRQAPGKERELVAAITTSGGRTYYADSVKGRFTMSRDNAKNTVYLQMNSLKPEDTAVYYCAADWGIGDYDYWGQGTQVTVSS”, the “polyreactivity (PSR sort gate)” value is given as “high polyreactivity”.
As to “QVQLVESGGGLVQAGGSLRLSCAASGRTLKYNAMGWYRQAPGKERELVAAISYSGSSTYYADSVKGRFTISRDNAKNTVYLQMNSLKPEDTAVYYCNTARPTAAYDYWGQGTQVTVSS”, the “polyreactivity (PSR sort gate)” value was “low polyreactivity”.
The entry for “QVQLVESGGGLVQAGGSLRLSCAASGLTFDKYTMGWYRQAPGKERELVARISTSGSRTYYADSVKGRFTISRDNAKNTVYLQMNSLKPEDTAVYYCNKDGWIRRRRGYDYWGQGTQVTVSS” is “high polyreactivity”; for “QVQLVESGGGLVQAGGSLRLSCAASGFIFWLYAMGWYRQAPGKERELVAAISSSGGNTYYADSVKGRFTISRDNAKNTVYLQMNSLKPEDTAVYYCAATYSYGRTYSGYYWGQGTQVTVSS” it is “low polyreactivity”; for “QVQLVESGGGLVQAGGSLRLSCAASGFIFRYYTMGWYRQAPGKERELVATITSGGSTYYADSVKGRFTISCDNAKNTVYLQMNSLKPEDTAVYYCAKVRDVLWRFNYWGQGTQVTVSS” it is “high polyreactivity”.
In the case of “HVQLVESGGGLVQAGGSLRLSCAASGFIFQSYAMGWYRQAPGKERELVASISASGGSTYYADSVKGRFTISRDNAKNTVYLQMNSLKPEDTAVYYCAAGYWSYWSLRMDYWGQGTQVTVSS”, the “polyreactivity (PSR sort gate)” value is on record as “high polyreactivity”.
As to “QVQLVESGGGLVQAGGSLRLSCPASGRIFRYYPMGWYRQAPGKEREFVAGITWSGGRTYYADSVKGRFTISRDNAKNTVFVQMNSLKPEDTAVYYCNADAGTRVGWWDDYDYWGQGTQVTVSS”, the “polyreactivity (PSR sort gate)” value is given as “low polyreactivity”.
“QVQLVESGGGLVQAGGSIRLSCAASGITFVGNAMGWYRQAPGKERELVASISSGASTNYADSVKGRFTISRDNAKNTVYLQMNSLKPEDTAVYYCAAEGSLEGWDFDSWGQGTQVTVSS”: the “polyreactivity (PSR sort gate)” value is recorded as “low polyreactivity”.
Take “QVQLVESGGGLVQAGGSLRLSCAASGGTFPRNAMGWYRQAPGKERELVAAINQSGGRTYYADSVKGRFTISRDNAKNTVYLQLNSLKPEDTAVYYCAARVTYYRTYRGRQYGYWGQGTQVTVSS”: the “polyreactivity (PSR sort gate)” value is “high polyreactivity”.
For the sequence “QVQLVESGGGLVQAGGSLRLSCAASGSSFDDKAMGWYRQAPGKERELVASITYRGGSTYYADSVKGRFTISRDHAKNTVNLHIKSLKPEVTAVYYCDKGHYFKYDYWGQGTQVTVSS”, the “polyreactivity (PSR sort gate)” value is “low polyreactivity”.
For “QVQLVESGGGLVQAGGSLRLSCAASGSTFVYYAMGWYRQAPGKERELGAAITASGGGTYYADSVKGRFTISRDNAKNTVYLQMNSLKPEDTAVYYCNRGYDYWGQGTQVTVSS”, the “polyreactivity (PSR sort gate)” value is “low polyreactivity”.
Regarding “QVQLVESGGGLVQAGGSLRLSCADSARTFYTNAKGWYRQAPGKERELVAAITGSDGNTYYADSVKGRFTISRDNAKNTVYLQMISLKPEDTAVYYGYDYWVQGTQVTVSS”, the “polyreactivity (PSR sort gate)” value is on record as “low polyreactivity”.
With “QVQLVESGGGLVQAGGSLRLSCADSGSTFRPYAMGWNRQAPGKERELVAAISSGDSTYYADSVKGRFTISRDNAKNTVYLQMNSLKPEDTAVYYCAKRKYWHRGGGYWGQGTQVTVSS”, the “polyreactivity (PSR sort gate)” value is “high polyreactivity”.
